Consider three variants from IntAct's records for PubMed 17235283.

Sequences and labels used below:
B1: Lymphocyte cytosolic protein 2 (Homo sapiens), Q13094 (parent)
chain: MALRNVPFRSEVLGWDPDSLADYFKKLNYKDCEKAVKKYHIDGARFLNLTENDIQKFPKLRVPILSKLSQEINKNEERRSIFTRKPQVPRFPEETESHEEDNGGWSSFEEDDYESPNDDQDGEDDGDYESPNEEEEAPVEDDADYEPPPSNDEEALQNSILPAKPFPNSNSMYIDRPPSGKTPQQPPVPPQRPMAALPPPPAGRNHSPLPPPQTNHEEPSRSRNHKTAKLPAPSIDRSTKPPLDRSLAPFDREPFTLGKKPPFSDKPSIPAGRSLGEHLPKIQKPPLPPTTERHERSSPLPGKKPPVPKHGWGPDRRENDEDDVHQRPLPQPALLPMSSNTFPSRSTKPSPMNPLPSSHMPGAFSESNSSFPQSASLPPYFSQGPSNRPPIRAEGRNFPLPLPNKPRPPSPAEEENSLNEEWYVSYITRPEAEAALRKINQDGTFLVRDSSKKTTTNPYVLMVLYKDKVYNIQIRYQKESQVYLLGTGLRGKEDFLSVSDIIDYFRKMPLLLIDGKNRGSRYQCTLTHAAGYP

The first assay covers variants of B1. Conditions: with stam1_human STAM.
As for MALRNVPFRSEVLGWDPDSLADYFKKLNYKDCEKAVKKYHIDGARFLNLTENDIQKFPKLRVPILSKLSQEINKNEERRSIFTRKPQVPRFPEETESHEEDNGGWSSFEEDDYESPNDDQDGEDDGDYESPNEEEEAPVEDDADYEPPPSNDEEALQNSILPAKPFPNSNSMYIDRPPSGKTPQQPPVPPQRPMAALPPPPAGRNHSPLPPPQTNHEEPSRSRNHKTAKLPAPPIDRSTKPPLDRSLAPFDREPFTLGKKPPFSDKPSIPAGRSLGEHLPKIQKPPLPPTTERHERSSPLPGKKPPVPKHGWGPDRRENDEDDVHQRPLPQPALLPMSSNTFPSRSTKPSPMNPLPSSHMPGAFSESNSSFPQSASLPPYFSQGPSNRPPIRAEGRNFPLPLPNKPRPPSPAEEENSLNEEWYVSYITRPEAEAALRKINQDGTFLVRDSSKKTTTNPYVLMVLYKDKVYNIQIRYQKESQVYLLGTGLRGKEDFLSVSDIIDYFRKMPLLLIDGKNRGSRYQCTLTHAAGYP [S234P], the “effect of a mutation on the interaction” value is on record as “decreasing interaction”.

The variants in a further assay derive from B1. The conditions noted are these: with stam2_human STAM2, O75886.
Take MALRNVPFRSEVLGWDPDSLADYFKKLNYKDCEKAVKKYHIDGARFLNLTENDIQKFPKLRVPILSKLSQEINKNEERRSIFTRKPQVPRFPEETESHEEDNGGWSSFEEDDYESPNDDQDGEDDGDYESPNEEEEAPVEDDADYEPPPSNDEEALQNSILPAKPFPNSNSMYIDRPPSGKTPQQPPVPPQRPMAALPPPPAGRNHSPLPPPQTNHEEPSRSRNHKTAKLPAPPIDRSTKPPLDRSLAPFDREPFTLGKKPPFSDKPSIPAGRSLGEHLPKIQKPPLPPTTERHERSSPLPGKKPPVPKHGWGPDRRENDEDDVHQRPLPQPALLPMSSNTFPSRSTKPSPMNPLPSSHMPGAFSESNSSFPQSASLPPYFSQGPSNRPPIRAEGRNFPLPLPNKPRPPSPAEEENSLNEEWYVSYITRPEAEAALRKINQDGTFLVRDSSKKTTTNPYVLMVLYKDKVYNIQIRYQKESQVYLLGTGLRGKEDFLSVSDIIDYFRKMPLLLIDGKNRGSRYQCTLTHAAGYP [S234P]: the “effect of a mutation on the interaction” value is “decreasing interaction”.

The variants in a further assay derive from B1. Conditions: with grb2_human GRB2, P62993.
Chain of grb2_human GRB2, P62993 (P62993 whole entry, looked up): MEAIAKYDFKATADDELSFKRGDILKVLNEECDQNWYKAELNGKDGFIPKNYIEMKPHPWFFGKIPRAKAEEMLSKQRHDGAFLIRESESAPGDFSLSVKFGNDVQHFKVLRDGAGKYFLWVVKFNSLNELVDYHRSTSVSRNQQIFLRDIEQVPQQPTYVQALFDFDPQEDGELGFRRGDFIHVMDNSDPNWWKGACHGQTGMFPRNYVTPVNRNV
In the case of MALRNVPFRSEVLGWDPDSLADYFKKLNYKDCEKAVKKYHIDGARFLNLTENDIQKFPKLRVPILSKLSQEINKNEERRSIFTRKPQVPRFPEETESHEEDNGGWSSFEEDDYESPNDDQDGEDDGDYESPNEEEEAPVEDDADYEPPPSNDEEALQNSILPAKPFPNSNSMYIDRPPSGKTPQQPPVPPQRPMAALPPPPAGRNHSPLPPPQTNHEEPSRSRNHKTAKLPAPSIDRRTKPPLDRSLAPFDREPFTLGKKPPFSDKPSIPAGRSLGEHLPKIQKPPLPPTTERHERSSPLPGKKPPVPKHGWGPDRRENDEDDVHQRPLPQPALLPMSSNTFPSRSTKPSPMNPLPSSHMPGAFSESNSSFPQSASLPPYFSQGPSNRPPIRAEGRNFPLPLPNKPRPPSPAEEENSLNEEWYVSYITRPEAEAALRKINQDGTFLVRDSSKKTTTNPYVLMVLYKDKVYNIQIRYQKESQVYLLGTGLRGKEDFLSVSDIIDYFRKMPLLLIDGKNRGSRYQCTLTHAAGYP [S238R], the “effect of a mutation on the interaction” value is “decreasing interaction”.

The variants in the next assay derive from B1. Conditions: with stam1_human STAM. The source holds these as a separate data set.
Take MALRNVPFRSEVLGWDPDSLADYFKKLNYKDCEKAVKKYHIDGARFLNLTENDIQKFPKLRVPILSKLSQEINKNEERRSIFTRKPQVPRFPEETESHEEDNGGWSSFEEDDYESPNDDQDGEDDGDYESPNEEEEAPVEDDADYEPPPSNDEEALQNSILPAKPFPNSNSMYIDRPPSGKTPQQPPVPPQRPMAALPPPPAGRNHSPLPPPQTNHEEPSRSRNHKTAKLPAPSIDRRTKPPLDRSLAPFDREPFTLGKKPPFSDKPSIPAGRSLGEHLPKIQKPPLPPTTERHERSSPLPGKKPPVPKHGWGPDRRENDEDDVHQRPLPQPALLPMSSNTFPSRSTKPSPMNPLPSSHMPGAFSESNSSFPQSASLPPYFSQGPSNRPPIRAEGRNFPLPLPNKPRPPSPAEEENSLNEEWYVSYITRPEAEAALRKINQDGTFLVRDSSKKTTTNPYVLMVLYKDKVYNIQIRYQKESQVYLLGTGLRGKEDFLSVSDIIDYFRKMPLLLIDGKNRGSRYQCTLTHAAGYP [S238R]: the “effect of a mutation on the interaction” value is “decreasing interaction”.

The variants in a further assay derive from B1. The conditions noted are these: with stam2_human STAM2, O75886. The source holds these as a separate data set.
With MALRNVPFRSEVLGWDPDSLADYFKKLNYKDCEKAVKKYHIDGARFLNLTENDIQKFPKLRVPILSKLSQEINKNEERRSIFTRKPQVPRFPEETESHEEDNGGWSSFEEDDYESPNDDQDGEDDGDYESPNEEEEAPVEDDADYEPPPSNDEEALQNSILPAKPFPNSNSMYIDRPPSGKTPQQPPVPPQRPMAALPPPPAGRNHSPLPPPQTNHEEPSRSRNHKTAKLPAPSIDRRTKPPLDRSLAPFDREPFTLGKKPPFSDKPSIPAGRSLGEHLPKIQKPPLPPTTERHERSSPLPGKKPPVPKHGWGPDRRENDEDDVHQRPLPQPALLPMSSNTFPSRSTKPSPMNPLPSSHMPGAFSESNSSFPQSASLPPYFSQGPSNRPPIRAEGRNFPLPLPNKPRPPSPAEEENSLNEEWYVSYITRPEAEAALRKINQDGTFLVRDSSKKTTTNPYVLMVLYKDKVYNIQIRYQKESQVYLLGTGLRGKEDFLSVSDIIDYFRKMPLLLIDGKNRGSRYQCTLTHAAGYP [S238R], the “effect of a mutation on the interaction” value is recorded as “decreasing interaction”.

Variants of B1 are the subject of another assay. The conditions noted are these: with grb2_human GRB2, P62993. The source holds these as a separate data set.
As to MALRNVPFRSEVLGWDPDSLADYFKKLNYKDCEKAVKKYHIDGARFLNLTENDIQKFPKLRVPILSKLSQEINKNEERRSIFTRKPQVPRFPEETESHEEDNGGWSSFEEDDYESPNDDQDGEDDGDYESPNEEEEAPVEDDADYEPPPSNDEEALQNSILPAKPFPNSNSMYIDRPPSGKTPQQPPVPPQRPMAALPPPPAGRNHSPLPPPQTNHEEPSRSRNHKTAKLPAPSIDRSPKPPLDRSLAPFDREPFTLGKKPPFSDKPSIPAGRSLGEHLPKIQKPPLPPTTERHERSSPLPGKKPPVPKHGWGPDRRENDEDDVHQRPLPQPALLPMSSNTFPSRSTKPSPMNPLPSSHMPGAFSESNSSFPQSASLPPYFSQGPSNRPPIRAEGRNFPLPLPNKPRPPSPAEEENSLNEEWYVSYITRPEAEAALRKINQDGTFLVRDSSKKTTTNPYVLMVLYKDKVYNIQIRYQKESQVYLLGTGLRGKEDFLSVSDIIDYFRKMPLLLIDGKNRGSRYQCTLTHAAGYP [T239P], the “effect of a mutation on the interaction” value is on record as “disrupting interaction”.

In a further assay the parent is B1. The conditions noted are these: with stam1_human STAM. This is another data set of the same source.
MALRNVPFRSEVLGWDPDSLADYFKKLNYKDCEKAVKKYHIDGARFLNLTENDIQKFPKLRVPILSKLSQEINKNEERRSIFTRKPQVPRFPEETESHEEDNGGWSSFEEDDYESPNDDQDGEDDGDYESPNEEEEAPVEDDADYEPPPSNDEEALQNSILPAKPFPNSNSMYIDRPPSGKTPQQPPVPPQRPMAALPPPPAGRNHSPLPPPQTNHEEPSRSRNHKTAKLPAPSIDRSPKPPLDRSLAPFDREPFTLGKKPPFSDKPSIPAGRSLGEHLPKIQKPPLPPTTERHERSSPLPGKKPPVPKHGWGPDRRENDEDDVHQRPLPQPALLPMSSNTFPSRSTKPSPMNPLPSSHMPGAFSESNSSFPQSASLPPYFSQGPSNRPPIRAEGRNFPLPLPNKPRPPSPAEEENSLNEEWYVSYITRPEAEAALRKINQDGTFLVRDSSKKTTTNPYVLMVLYKDKVYNIQIRYQKESQVYLLGTGLRGKEDFLSVSDIIDYFRKMPLLLIDGKNRGSRYQCTLTHAAGYP [T239P]: the “effect of a mutation on the interaction” value was “disrupting interaction”.

The variants in another assay derive from B1. Conditions: with stam2_human STAM2, O75886. This is another data set of the same source.
As for MALRNVPFRSEVLGWDPDSLADYFKKLNYKDCEKAVKKYHIDGARFLNLTENDIQKFPKLRVPILSKLSQEINKNEERRSIFTRKPQVPRFPEETESHEEDNGGWSSFEEDDYESPNDDQDGEDDGDYESPNEEEEAPVEDDADYEPPPSNDEEALQNSILPAKPFPNSNSMYIDRPPSGKTPQQPPVPPQRPMAALPPPPAGRNHSPLPPPQTNHEEPSRSRNHKTAKLPAPSIDRSPKPPLDRSLAPFDREPFTLGKKPPFSDKPSIPAGRSLGEHLPKIQKPPLPPTTERHERSSPLPGKKPPVPKHGWGPDRRENDEDDVHQRPLPQPALLPMSSNTFPSRSTKPSPMNPLPSSHMPGAFSESNSSFPQSASLPPYFSQGPSNRPPIRAEGRNFPLPLPNKPRPPSPAEEENSLNEEWYVSYITRPEAEAALRKINQDGTFLVRDSSKKTTTNPYVLMVLYKDKVYNIQIRYQKESQVYLLGTGLRGKEDFLSVSDIIDYFRKMPLLLIDGKNRGSRYQCTLTHAAGYP [T239P], the “effect of a mutation on the interaction” value is “disrupting interaction”.
